Experimental data as given in paper PMC3988464 (Journal of immunology (Baltimore, Md. : 1950), 2014).
One block for each binder: values may come before it.

Key:
[1] = target: Full-length, wild type recombinant human TSG-6 (human, UniProt P98066 18-277); test: SPR
[2] = target: Isolated Link module of human TSG-6 (Link_TSG6) (human, UniProt P98066 36-129); test: SPR
Isolated Link module of human TSG-6 (Link_TSG6), sequence (P98066 36-129): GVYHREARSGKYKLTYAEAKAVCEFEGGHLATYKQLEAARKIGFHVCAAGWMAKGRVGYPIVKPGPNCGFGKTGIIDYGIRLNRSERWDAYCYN

Full-length, wild type recombinant human TSG-6, sequence (P98066 18-277): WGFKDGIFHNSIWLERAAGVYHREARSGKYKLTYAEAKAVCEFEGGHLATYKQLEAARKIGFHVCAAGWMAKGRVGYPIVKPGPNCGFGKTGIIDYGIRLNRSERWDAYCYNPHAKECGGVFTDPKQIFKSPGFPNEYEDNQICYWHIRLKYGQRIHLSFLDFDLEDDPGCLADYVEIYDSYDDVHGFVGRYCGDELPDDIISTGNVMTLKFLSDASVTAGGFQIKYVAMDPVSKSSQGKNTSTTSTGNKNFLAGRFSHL

- Kd [1]: 2110 nM
- koff [1]: 0.0014 s⁻¹
- kon [1]: 640 M⁻¹ s⁻¹
B1: CXCL8_T (K64A/K67A/R68A) mutant (ligand)
chain: SAKELRCQCIKTYSKPFHPKFIKELRVIESGPHCANTEIIVKLSDGRELCLDPKENWVQRVVEAFLAAAENS
modifications: 72-residue mature form by convention (mature numbering +27 = precursor); monomer/dimer equilibrium

- Kd [2]: 2 nM
- koff [2]: 0.00011 s⁻¹
- kon [2]: 57000 M⁻¹ s⁻¹
B2: CCL5 (ligand, UniProt P13501 24-91, looked up)
chain: SPYSSDTTPCCFAYIARPLPRAHIKEYFYTSGKCSNPAVVFVTRKNRQVCANPEKKWVREYINSLEMS

- Kd [1]: 16.4 nM
- koff [1]: 0.00011 s⁻¹
- kon [1]: 6400 M⁻¹ s⁻¹
B3: CXCL11 (ligand, UniProt O14625 22-94, looked up)
chain: FPMFKRGRCLCIGPGVKAVKVADIEKASIMYPSNNCDKIEVIITLKENKGQRCLNPKSKQARLIIKKVERKNF
